According to patent US20190071490A1, “Preventing Post-Ictal Headaches” (Beth Israel Deaconess Medical Center, Inc., priority 2017, published 2019):
Residue numbers refer to the chain shown, from its start. Names and notes keep the numbering of the source.

T1: human α-CGRP (Homo sapiens, UniProt P06881)
T1 construct: 1-37 (WT); purchased GenScript Corporation or Global Peptide Services
T1 sequence (P06881 83-119 limits assumed): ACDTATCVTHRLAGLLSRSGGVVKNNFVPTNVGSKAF

T2: rat α-CGRP (Rattus norvegicus, UniProt P01256)
T2 construct: rat α (1-37); purchased GenScript Corporation or Global Peptide Services
T2 sequence (P01256 83-119 limits assumed): T1 sequence (P06881 83-119 limits assumed) with A1S, D3N, N25D, K35E

B1: M46: G1 variant; L1 R28N; L2 G50A L56T; H2 E54K A57N S58E H61F; HC-FW3 L99T A100V (antibody, V domains shown)
VH: EVQLVESGGGLVQPGGSLRLSCAASGFTFSNYWISWVRQAPGKGLEWVAEIRSKSDNEATFYAEAVKGRFTISRDNAKNSLYLQMNSLRAEDTAVYYCTVYFDYGLAIQNYWGQGTLVTVSS
VL: EIVLTQSPATLSLSPGERATLSCKASKNVTTYVSWYQQKPGQAPRLLIYAASNRYTGIPARFSGSGSGTDFTLTISSLEPEDFAVYYCSQSYNYPYTFGQGTKLEIK
B2: M60: G1 variant; L1 R28N T30D; L2 L56S; H2 E54K A57N S58R H61F; HC-FW3 L99T A100V (antibody, V domains shown)
VH: B1 VH with E58R
VL: B1 VL with T30D, A50G, T56S
B3: M53: G1 variant; L1 R28N; L2 L561; H2 E54K A57N S58G; HC-FW3 L99T A100V (antibody, V domains shown)
VH: B1 VH with E58G, F61H
VL: B1 VL with A50G, T56I
B4: M62: G1 variant; L1 R28N T30G; L2 A51H L56T; H2 E54K A57N S58E; HC-FW3 L99T A100V (antibody, V domains shown)
VH: B1 VH with F61H
VL: B1 VL with T30G, A50G, A51H
B5: M63: G1 variant; L1 R28N T30G; L2 G50A; H2 E54K A57N S58T; HC-FW3 L99T A100V (antibody, V domains shown)
VH: B1 VH with E58T, F61H
VL: B1 VL with T30G, T56L
B6: M50: G1 variant; L1 R28N; L2 G50A L56T; H2 E54K A57R; HC-FW3 L99T A100V (antibody, V domains shown)
VH: B1 VH with N57R, E58S, F61H
VL: B1 VL
B7: M59: G1 variant; L1 R28N T30D; L2 L56S; H2 E54K A57N S58N H61F; HC-FW3 L99T A100V (antibody, V domains shown)
VH: B1 VH with E58N
VL: B1 VL with T30D, A50G, T56S
B8: M52: G1 variant; L1 R28N; L2 L561; H2 E54K A57N S58A; HC-FW3 L99T A100V (antibody, V domains shown)
VH: B1 VH with E58A, F61H
VL: B1 VL with A50G, T56I
B9: M61: G1 variant; L1 R28N T30G; L2 A51H; H2 E54Q A57N H61F; HC-FW3 L99T A100V (antibody, V domains shown)
VH: B1 VH with K54Q, E58S
VL: B1 VL with T30G, A50G, A51H, T56L
B10: M54: G1 variant; L1 R28N T30A; L2 G50A; H2 E54K A57N S58P; HC-FW3 L99T A100V (antibody, V domains shown)
VH: B1 VH with E58P, F61H
VL: B1 VL with T30A, T56L
B11: M55: G1 variant; L1 R28N T30A; L2 L56S; H2 E54K A57N S58E E64D; HC-FW3 L99T A100V (antibody, V domains shown)
VH: B1 VH with F61H, E64D
VL: B1 VL with T30A, A50G, T56S
B12: M58: G1 variant; L1 R28N T30D; L2 L56S; H2 E54K A57N S58I H61F; HC-FW3 L99T A100V (antibody, V domains shown)
VH: B1 VH with E58I
VL: B1 VL with T30D, A50G, T56S
B13: M51: G1 variant; L1 R28N; L2 L561; H2 E54K A57G; HC-FW3 L99T A100V (antibody, V domains shown)
VH: B1 VH with N57G, E58S, F61H
VL: B1 VL with A50G, T56I
B14: M57: G1 variant; L1 R28N T30D; L2 L56S; H2 E54K A57N S58E; HC-FW3 L99T A100V (antibody, V domains shown)
VH: B1 VH with F61H
VL: B1 VL with T30D, A50G, T56S
B15: M64: G1 variant; L1 R28N T30G; L2 G50A; H2 E54K A57N S58V; HC-FW3 L99T A100V (antibody, V domains shown)
VH: B1 VH with E58V, F61H
VL: B1 VL with T30G, T56L
B16: M49: G1 variant; L1 R28N; L2 G50A L56T; H2 E54K A57N S58Y H61F; HC-FW3 L99T A100V (antibody, V domains shown)
VH: B1 VH with E58Y
VL: B1 VL
B17: M47: G1 variant; L1 R28N; L2 G50A L56T; H2 E54K A57N S58G; HC-FW3 L99T A100V (antibody, V domains shown)
VH: B1 VH with E58G, F61H
VL: B1 VL
B18: M48: G1 variant; L1 R28N; L2 G50A L56T; H2 E54K A57N S58L; HC-FW3 L99T A100V (antibody, V domains shown)
VH: B1 VH with E58L, F61H
VL: B1 VL
B19: M56: G1 variant; L1 R28N T30D; L2 L56S; H2 E54K A57N H61F; HC-FW3 L99T A100V (antibody, V domains shown)
VH: B1 VH with E58S
VL: B1 VL with T30D, A50G, T56S
B20: M25: G1 variant; L1 R28N; HC-FW3 L99T A100V (antibody, V domains shown)
VH: B1 VH with K54E, N57A, E58S, F61H
VL: B1 VL with A50G, T56L

The molecules below were run against T1, human α-CGRP (assay: Biacore SPR affinity of Fab fragments to N-biotinylated human α-CGRP on SA chip). Conditions: 37° C., screening mode except underlined values.
Format: binding
Procedure: (§1) Affinity determination of the Fabs. Affinities of the anti-CGRP monoclonal antibodies were determined at either 25° C. or 37° C. using the BIACORE3000™ surface plasmon resonance (SPR) system (Biacore, INC, Piscataway N.J.) with the manufacture's own running buffer, HBS-EP (10 mM HEPES pH 7.4, 150 mM NaCl, 3 mM EDTA, 0.005% v/v polysorbate P20). Affinity was determined by capturing N-terminally biotinylated CGRP peptides (custom ordered from GenScript Corporation, New Jersey or Global Peptide Services, Colorado) via pre-immobilized streptavidin on SA chip and measuring binding kinetics of antibody Fab titrated across the CGRP surface. Biotinylated CGRP was diluted into HBS-EP and injected over the chip at a concentration of less than 0.001 mg/ml. Using variable flow time across the individual chip channels, two ranges of antigen density were achieved: <50 response units (RU) for detailed kinetic studies and about 800 RU for concentration studies and screening. […] After each binding cycle, surfaces were regenerated with 25 mM NaOH in 25% v/v ethanol, which was tolerated over hundreds of cycles. Kinetic association rate (kon) and dissociation rate (koff) were obtained simultaneously by fitting the data to a 1:1 Langmuir binding model (Karlsson et al. (1994). Methods Enzymology 6. 99-110) using the BIAevaluation program. Global equilibrium dissociation constants (KD) or “affinities” were calculated from the ratio KD=koff/kon.
(§2) Biacore assay for affinity determination. […] All Biacore assays were conducted in HBS-EP running buffer (10 mM HEPES pH 7.4, 150 mM NaCl, 3 mM EDTA, 0.005% v/v polysorbate P20). CGRP surfaces were prepared by diluting the N-biotinylated CGRP to a concentration of less than 0.001 mg/mL into HBS-EP buffer and injecting it across the SA sensor chip using variable contact times. Low capacity surfaces, corresponding to capture levels <50 response units (RU) were used for high-resolution kinetic studies, whereas high capacity surfaces (about 800 RU of captured CGRP) were used for concentration studies, screening, and solution affinity determinations. […] Samples were typically injected for 1 minute at 100 μL/min and dissociation times of at least 10 minutes were allowed. After each binding cycle, surfaces were regenerated with 25 mM NaOH in 25% v/v ethanol, which was tolerated over hundreds of cycles. An entire titration series (typically generated in duplicate) was fit globally to a 1:1 Langmuir binding model using the BIAevaluation program. This returned a unique pair of association and dissociation kinetic rate constants (respectively, kon and koff) for each binding interaction, whose ratio gave the equilibrium dissociation constant (KD=koff/kon).
(§3) High-resolution analysis of binding interactions with extremely slow off rates. […] The protocol described above was used with the following modifications. The association rate constant (kon) was determined by injecting a 2-fold titration series (in duplicate) spanning 550 nM-1 nM for 30 seconds at 100 μL/min and allowing only a 30 second dissociation phase. The dissociation rate constant (koff) was determined by injecting three concentrations (high, medium, and low) of the same titration series in duplicate for 30 seconds and allowing a 2-hour dissociation phase. The affinity (KD) of each interaction was obtained by combining the kon and koff values obtained in both types of experiments, as shown in Table 4.

| α-human koff [s⁻¹] | Molecule |
| --- | --- |
| 0.000539 | B1 |
| 0.000911 | B2 |
| 0.000374 | B3 |
| 0.000557 | B4 |
| 0.0015 | B5 |
| 0.000406 | B6 |
| 0.000524 | B7 |
| 0.000281 | B8 |
| 0.000459 | B9 |
| 0.00179 | B10 |
| 0.000478 | B11 |
| 0.00195 | B12 |
| 0.000131 | B13 |
| 0.000322 | B14 |
| 0.00132 | B15 |
| 0.000595 | B16 |
| 0.000332 | B17 |
| 0.000842 | B18 |
| 0.000479 | B19 |

What follows are molecules tested against T2, rat α-CGRP (assay: Biacore SPR affinity of Fab fragments to N-biotinylated rat α-CGRP on SA chip). Conditions: 37° C., screening mode except underlined values.
Format: binding
Procedure: as §1, §2, §3

| α-rat koff [s⁻¹] | α-rat koff (1/s) | Molecule |
| --- | --- | --- |
| 0.00294 | – | B1 |
| 0.0014 | – | B20 |
| 0.0272 | – | B2 |
| 0.00191 | – | B3 |
| 0.00575 | – | B4 |
| 0.00265 | – | B5 |
| 0.0053 | – | B6 |
| 0.0123 | – | B7 |
| 0.00229 | – | B8 |
| 0.00521 | – | B9 |
| 0.00216 | – | B10 |
| 0.00585 | – | B11 |
| – | No binding | B12 |
| 0.00118 | – | B13 |
| 0.0104 | – | B14 |
| 0.0234 | – | B15 |
| 0.0148 | – | B16 |
| 0.00823 | – | B17 |
| 0.0343 | – | B18 |
| 0.00935 | – | B19 |
